T1: FcγRIIb extracellular domain with C-terminal His tag (human, UniProt P31994 43-217)
T1 construct: extracellular domain; also called FcgRIIb; 2b; not shown: His tag attached to the C terminus
T1 sequence (looked up): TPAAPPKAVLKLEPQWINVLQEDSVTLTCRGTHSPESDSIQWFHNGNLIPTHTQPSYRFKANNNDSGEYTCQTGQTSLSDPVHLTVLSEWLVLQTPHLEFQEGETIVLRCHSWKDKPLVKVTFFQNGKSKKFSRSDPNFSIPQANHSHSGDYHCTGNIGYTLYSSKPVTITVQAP

B1: GpH7-A5/GpH7-B3 variant L328_02A/GpL16-k0 (antibody, human IgG1, kappa)
heavy 1: not shown
heavy 2: not shown
light: DIVMTQSPLSLPVTPGEPASISCQASESLVHSNRNTYLHWYLQKPGQSPQLLIYKVSNRFSGVPDRFSGSGSGTDFTLKISRVEAEDVGVYYCSQNTHVPPTFGQGTKVEIERTVAAPSVFIFPPSDEQLKSGTASVVCLLNNFYPREAKVQWKVDNALQSGNSQESVTEQDSKDSTYSLSSTLTLSKADYEKHKVYACEVTHQGLSSPVTKSFNRGEC
notes: Heterodimerized IgG1; alteration in one H chain only; also called He Ab
B2: GpH7-A5/GpH7-B3 variant L328_03V/GpL16-k0 (antibody, human IgG1, kappa)
heavy 1: not shown
heavy 2: not shown
light: B1 light
notes: as for B1
B3: GpH7-A5/GpH7-B3 variant N325_04F/GpL16-k0 (antibody, human IgG1, kappa)
heavy 1: not shown
heavy 2: not shown
light: B1 light
notes: as for B1
B4: GpH7-A5/GpH7-B3 variant P271_14T/GpL16-k0 (antibody, human IgG1, kappa)
heavy 1: not shown
heavy 2: not shown
light: B1 light
notes: as for B1
B5: GpH7-A5/GpH7-B3 variant S298_08L/GpL16-k0 (antibody, human IgG1, kappa)
heavy 1: not shown
heavy 2: not shown
light: B1 light
notes: as for B1
B6: GpH7-A5/GpH7-B3 variant Y300_10E/GpL16-k0 (antibody, human IgG1, kappa)
heavy 1: not shown
heavy 2: not shown
light: B1 light
notes: as for B1
B7: GpH7-A5/GpH7-B3 variant L328_04F/GpL16-k0 (antibody, human IgG1, kappa)
heavy 1: not shown
heavy 2: not shown
light: B1 light
notes: as for B1
B8: GpH7-A5/GpH7-B3 variant N325_03V/GpL16-k0 (antibody, human IgG1, kappa)
heavy 1: not shown
heavy 2: not shown
light: B1 light
notes: as for B1
B9: GpH7-A5/GpH7-B3 variant Y296_18N/GpL16-k0 (antibody, human IgG1, kappa)
heavy 1: not shown
heavy 2: not shown
light: B1 light
notes: as for B1
B10: GpH7-A5/GpH7-B3 variant N325_10E/GpL16-k0 (antibody, human IgG1, kappa)
heavy 1: not shown
heavy 2: not shown
light: B1 light
notes: as for B1
B11: GpH7-A5/GpH7-B3 variant N325_05P/GpL16-k0 (antibody, human IgG1, kappa)
heavy 1: not shown
heavy 2: not shown
light: B1 light
notes: as for B1
B12: GpH7-A5/GpH7-B3 variant Y296_16H/GpL16-k0 (antibody, human IgG1, kappa)
heavy 1: not shown
heavy 2: not shown
light: B1 light
notes: as for B1
B13: GpH7-A5/GpH7-B3 variant Y296_01G/GpL16-k0 (antibody, human IgG1, kappa)
heavy 1: not shown
heavy 2: not shown
light: B1 light
notes: as for B1
B14: GpH7-A5/GpH7-B3 variant N325_09D/GpL16-k0 (antibody, human IgG1, kappa)
heavy 1: not shown
heavy 2: not shown
light: B1 light
notes: as for B1
B15: GpH7-A5/GpH7-B3 variant N325_20W/GpL16-k0 (antibody, human IgG1, kappa)
heavy 1: not shown
heavy 2: not shown
light: B1 light
notes: as for B1

The binders below were run against T1, FcγRIIb extracellular domain with … (assay: SPR (Biacore), relative binding).
Description: (§1) Analysis of interaction between objective antibody and the FcγR was carried out using Biacore T100 (GE Healthcare). HBS-EP+ (GE Healthcare) was used as the running buffer, and the measurement temperature was set to 25° C. Chips produced by immobilizing the antigen peptide by the amine coupling method to a Series S Sencor Chip CM5 (GE Healthcare), or alternatively, chips produced by allowing preliminarily biotinylated antigen peptides to interact with and immobilize onto a Series S Sensor Chip SA (certified) (GE Healthcare) were used. Antibodies of interest were captured onto an antigen peptide-immobilized chip, and allowed to interact to each FcγR diluted with running buffer. To regenerate and repeatedly use the chip, the antibodies captured on the chip were washed off by reacting 10 mM glycine-HCl, pH 1.5.
(§2) The FcγR-binding activity of each antibody was assessed primarily using as an indicator the FcγR-binding activity and dissociation constant for FcγR.

Row | He/Con_2b (IIb binding) | Binder
1 | 144 % of GpH7-A5/GpH7-B3/GpL16-k0 (=100) | B1
2 | 126 % of GpH7-A5/GpH7-B3/GpL16-k0 (=100) | B2
3 | 143 % of GpH7-A5/GpH7-B3/GpL16-k0 (=100) | B3
4 | 95.4 % of GpH7-A5/GpH7-B3/GpL16-k0 (=100) | B4
5 | 108 % of GpH7-A5/GpH7-B3/GpL16-k0 (=100) | B5
6 | 134 % of GpH7-A5/GpH7-B3/GpL16-k0 (=100) | B6
7 | 219 % of GpH7-A5/GpH7-B3/GpL16-k0 (=100) | B7
8 | 111 % of GpH7-A5/GpH7-B3/GpL16-k0 (=100) | B8
9 | 91.5 % of GpH7-A5/GpH7-B3/GpL16-k0 (=100) | B9
10 | 95.9 % of GpH7-A5/GpH7-B3/GpL16-k0 (=100) | B10
11 | 26 % of GpH7-A5/GpH7-B3/GpL16-k0 (=100) | B11
12 | 92.2 % of GpH7-A5/GpH7-B3/GpL16-k0 (=100) | B12
13 | 79.3 % of GpH7-A5/GpH7-B3/GpL16-k0 (=100) | B13
14 | 124 % of GpH7-A5/GpH7-B3/GpL16-k0 (=100) | B14
15 | 169 % of GpH7-A5/GpH7-B3/GpL16-k0 (=100) | B15

These binders were tested against T2, FcγRIIIa extracellular domain with C-terminal His tag (human, UniProt P08637 17-208) (assay: SPR (Biacore), relative binding).
T2 construct: extracellular domain; also called FcgRIIIa; 3a; not shown: His tag attached to the C terminus
Description: as §1, §2

T2 sequence (P08637 17-208): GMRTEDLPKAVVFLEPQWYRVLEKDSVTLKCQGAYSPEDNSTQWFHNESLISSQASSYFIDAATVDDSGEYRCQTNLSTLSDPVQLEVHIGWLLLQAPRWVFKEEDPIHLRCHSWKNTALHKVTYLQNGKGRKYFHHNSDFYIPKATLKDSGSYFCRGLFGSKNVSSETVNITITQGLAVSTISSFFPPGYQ

Row | He/Con_3a (IIIa binding) | Binder
16 | 79.1 % of GpH7-A5/GpH7-B3/GpL16-k0 (=100) | B1
17 | 78.7 % of GpH7-A5/GpH7-B3/GpL16-k0 (=100) | B2
18 | 20.7 % of GpH7-A5/GpH7-B3/GpL16-k0 (=100) | B3
19 | 56.4 % of GpH7-A5/GpH7-B3/GpL16-k0 (=100) | B4
20 | 73.5 % of GpH7-A5/GpH7-B3/GpL16-k0 (=100) | B5
21 | 104 % of GpH7-A5/GpH7-B3/GpL16-k0 (=100) | B6
22 | 79.3 % of GpH7-A5/GpH7-B3/GpL16-k0 (=100) | B7
23 | 30.3 % of GpH7-A5/GpH7-B3/GpL16-k0 (=100) | B8
24 | 72.1 % of GpH7-A5/GpH7-B3/GpL16-k0 (=100) | B9
25 | 38.2 % of GpH7-A5/GpH7-B3/GpL16-k0 (=100) | B10
26 | 10.2 % of GpH7-A5/GpH7-B3/GpL16-k0 (=100) | B11
27 | 73.4 % of GpH7-A5/GpH7-B3/GpL16-k0 (=100) | B12
28 | 54.5 % of GpH7-A5/GpH7-B3/GpL16-k0 (=100) | B13
29 | 48 % of GpH7-A5/GpH7-B3/GpL16-k0 (=100) | B14
30 | 32.8 % of GpH7-A5/GpH7-B3/GpL16-k0 (=100) | B15

These binders were tested against T2, FcγRIIIa extracellular domain with … (assay: SPR (Biacore); He/Con_3a divided by He/Con_2b (reference: binding to FcγRIIb)).
Description: as §1, §2

Row | He_3a/2b (IIIa/IIb) | Binder
31 | 0.55 ratio | B1
32 | 0.63 ratio | B2
33 | 0.14 ratio | B3
34 | 0.59 ratio | B4
35 | 0.68 ratio | B5
36 | 0.78 ratio | B6
37 | 0.36 ratio | B7
38 | 0.27 ratio | B8
39 | 0.79 ratio | B9
40 | 0.4 ratio | B10
41 | 0.39 ratio | B11
42 | 0.8 ratio | B12
43 | 0.69 ratio | B13
44 | 0.39 ratio | B14
45 | 0.19 ratio | B15
